The results in this text go back to patent publication US20110200590A1.

What all share (experiment): cell-based or functional assay
Assay [1] addresses Interleukin-10 (IL-10) released by human monocytes (human) (UniProt P22301).
Assay [2] addresses FcRI (CD64), high affinity immunoglobulin gamma Fc receptor I, on human monocytes (human) (UniProt P12314).
Assay [3] has as its target anti-MBP (105-120) monoclonal IgM Mab 1, clone DM1A2C1.

Sequence of UniProt P12314 (P12314 16-374 limits assumed, form in doubt): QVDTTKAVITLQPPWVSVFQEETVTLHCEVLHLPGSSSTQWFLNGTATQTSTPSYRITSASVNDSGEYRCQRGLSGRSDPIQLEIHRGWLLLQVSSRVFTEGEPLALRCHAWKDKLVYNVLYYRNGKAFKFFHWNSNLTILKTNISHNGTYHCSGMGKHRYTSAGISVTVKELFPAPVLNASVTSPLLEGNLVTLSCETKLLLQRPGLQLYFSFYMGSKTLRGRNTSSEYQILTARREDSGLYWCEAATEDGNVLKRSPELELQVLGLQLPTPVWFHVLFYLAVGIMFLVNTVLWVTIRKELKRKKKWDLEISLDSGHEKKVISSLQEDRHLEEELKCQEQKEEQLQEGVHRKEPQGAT
Sequence of UniProt P22301 (P22301 19-178 limits assumed): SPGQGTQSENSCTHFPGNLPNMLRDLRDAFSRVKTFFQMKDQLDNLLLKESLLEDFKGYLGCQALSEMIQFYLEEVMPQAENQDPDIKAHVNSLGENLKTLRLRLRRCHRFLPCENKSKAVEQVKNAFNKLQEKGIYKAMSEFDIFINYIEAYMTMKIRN

On to “neutralising monoclonal antibody anti-human IL-10 (R&D Systems)”, for which, in assay [1], the % inhibition of proliferation of human MBP+-T line by Mab 1 in the presence of Mab IL-10 (T + PBM + Mab 1 + Mab IL-10) turned out to be 0% and the % inhibition of proliferation of human MBP+-T line by Mab CD64 in the presence of Mab IL-10 (T + PBM + Mab CD64 + Mab IL-10) is 0%.
Consider “mouse monoclonal antibody anti-human CD64, IgG1 (Ancell)”, for which, in assay [2], the % inhibition of proliferation of human MBP+-T cells (T + PBM + Mab CD64) came to 100%, the % inhibition of proliferation of human MBP+-T line (T + PBM + Mab CD64) amounted to 98%, the Levels of IL-10 in the supernatants of human monocytes (MNC + Mab CD64) was 3950 pg/mL and the Levels of IL-10 in the supernatants of human monocytes activated with LPS (MNC + LPS + Mab CD64) amounted to 6360 pg/mL.
Regarding GLQLYFS [peptide 222-228 CD64 (GLQLYFS)], in assay [3], the % inhibition of proliferation of human MBP+-T cells by Mab 1 in the presence of pep 1 (T + PBM + Mab 1 + pep 1) came out at 0%.
Regarding QFLGSYL [“scrambled” peptide (QFLGSYL Seq ID no 5)], the % inhibition of proliferation of human MBP+-T cells by Mab 1 in the presence of pep 2 (T + PBM + Mab 1 + pep 2) in assay [3] was 98%.
